Measured values published in publication PMC5149108.

Columns and labels:
Test in all cases: fluorescence anisotropy
A1-RRM = A1-RRM (UniProt P09651 14-184)
A1-FL (hnRNPA1) = A1-FL (hnRNPA1) (UniProt P09651 1-251+304-372, internal_change)
A1-LCD = A1-LCD (UniProt P09651 186-251+304-372, internal_change)

Measured: binding result

GGGCCCCCGGGUACCGAGCUGCUAAUCAAAACAAAACAAAAGCU (ssRNA) [fl-RNA44]
binds: all assays above
